Experimental data reported in patent publication US20250109171A1, “COMPOUNDS AND COMPOSITIONS FOR TARGETED THERAPY OF RENAL DISEASES” (SHANGHAI MICURX PHARMACEUTICALS CO., LTD., priority 2021, published 2025).
Positions of bridges follow the written chain, without caps; N, C: chain ends. Non-standard residues stand in square brackets, D forms with d. Residues, ends and D or L forms follow the SMILES beside them. *: point of attachment. Succinyl(O21-dexamethasone) = C[C@@H]1C[C@H]2[C@@H]3CCC4=CC(=O)C=C[C@]4(C)[C@@]3(F)[C@@H](O)C[C@]2(C)[C@@]1(O)C(=O)COC(=O)CCC(=O)*; X1 = CC(C(=O)OCC(=O)[C@@]1(O)[C@H](C)C[C@H]2[C@@H]3CCC4=CC(=O)C=C[C@]4(C)[C@@]3(F)[C@@H](O)C[C@@]21C)C(C)C(=O)*; Dab = NCC[C@H](N)C(=O)O

What was measured:
[1] = Rodent (mouse) PK model of intravenous administration: dexamethasone levels in kidney tissue; format: in vivo; conditions: for Kidney drug (dexamethasone) concentration: T = 24 h, the last time point evaluated; for Kidney dexamethasone levels greater than those achieved through injection of unconjugated dexamethasone: drug concentration in kidney tissue, summary of Table 1
Method: Preferential renal targeting validating the delivery of compounds provided herein into kidneys (or at the site of a kidney injury) is evaluated, for example, by pharmacokinetic (PK) tests, such as in a standard rodent PK test. PK data are generally used to establish the key parameters predictive of the therapy outcome. Thus, a drug concentration (C) at given time points, drug concentration at the target tissue(s) (CTarget), area under the curve (AUC) for a plot monitoring the change in the systemic drug concentration over time and other parameters are generally predictive of therapeutic efficacy. For example, drug concentration at an organ affected by cancer is important for effective action of anticancer agents (as described, for example, by Zhang et al. in Drug Metabolism and Disposition. 2019, vol. 47, p. 1122).
Representative compounds provided herein were tested in a rodent PK model of intravenous administration performed analogously to methods described in the monograph Current Protocols in Pharmacology, 2005, 7.1.1-7.1.26, John Wiley & Sons, Inc. Illustrative mouse PK data for the compounds of Examples 1 and 2 are summarized in the Table 1 below.

[2] = system: cisplatin-induced acute kidney injury (AKI); test: Cisplatin-induced acute kidney injury mouse model (blood CREA and BUN on day 3); format: in vivo, C57BL/6 mouse; conditions: cisplatin 20 mg/kg i.p.; test articles i.v. after 1 h, 4 mg/kg; about 20% dexamethasone equivalent dosing; FIG. 1
Method: Specifically, in one of the tests, cisplatin (20 mg/kg) was administrated to C57BL/6 mouse (male, weight range 20-25 g) by intraperitoneal injection to induce acute kidney injury. After 1 h, testing articles (saline, or dexamethasone, or a compound of Example 1 or 2) were given by intravenously. On day 3, blood CREA (creatinine) and BUN (blood urea nitrogen) were determined.

[3] = T = 3 h, injection into mouse tail vein
[4] = T = 3 h, injection into mouse tail vein, dexamethasone 1 mg/kg, Examples 4 mg/kg

| Structure (SMILES) | Enhanced dexamethasone levels in kidney expressed per ratio vs. dosing of free dexamethasone [1, 3] | Drug levels from standard injection of unconjugated drug ([1]; after only 6 h) | concentration at 3 h ([1]; kidney, intravenous, T = 3 h, injection into mouse tail vein, dexamethasone 1 mg/kg, Examples 4 mg/kg, read-out: Kidney tissue concentration (dexamethasone levels in kidneys)) [ng/g] | Anti-inflammatory efficacy in the AKI model per BUN and CREA values, compared to dexamethasone [2] | Kidney tissue concentration (dexamethasone levels in kidneys) [1, 4] [ng/g] | Kidney drug (dexamethasone) concentration [1] [ng/g] | Kidney dexamethasone levels greater than those achieved through injection of unconjugated dexamethasone [1] |
| --- | --- | --- | --- | --- | --- | --- | --- |
| C[C@@H]1C[C@H]2[C@@H]3CCC4=CC(=O)C=C[C@]4(C)[C@@]3(F)[C@@H](O)C[C@]2(C)[C@@]1(O)C(=O)CO [Dexamethasone, dexamethasone, reference compound] | 1 | virtually undetectable | 13 |  |  |  |  |
| CC(C)C[C@@H]1NC(=O)[C@@H](Cc2ccccc2)NC(=O)[C@H](CCN)NC(=O)[C@@H](NC(=O)[C@H](CCN)NC(=O)[C@@H](NC(=O)CCC(=O)OCC(=O)[C@@]2(O)[C@H](C)C[C@H]3[C@@H]4CCC5=CC(=O)C=C[C@]5(C)[C@@]4(F)[C@@H](O)C[C@@]32C)[C@@H](C)O)CCNC(=O)[C@H]([C@@H](C)O)NC(=O)[C@H](CCN)NC(=O)[C@H](CCN)NC1=O [Example 2] ({Succinyl(O21-dexamethasone)}-T[Dab][Dab][Dab][dF]L[Dab][Dab]T; lactam 3-C) | 7.2 |  |  | greatly increased anti-inflammatory efficacy | 93.4 | 18.5 | ~7 fold |
| CC(C)C[C@@H]1NC(=O)[C@@H](Cc2ccccc2)NC(=O)[C@H](CCN)NC(=O)[C@@H](NC(=O)[C@H](CCN)NC(=O)[C@@H](NC(=O)C(C)C(C)C(=O)OCC(=O)[C@@]2(O)[C@H](C)C[C@H]3[C@@H]4CCC5=CC(=O)C=C[C@]5(C)[C@@]4(F)[C@@H](O)C[C@@]32C)[C@@H](C)O)CCNC(=O)[C@H]([C@@H](C)O)NC(=O)[C@H](CCN)NC(=O)[C@H](CCN)NC1=O (stereo partly shown) [Example 1] (X1-T[Dab][Dab][Dab][dF]L[Dab][Dab]T; lactam 3-C) | 9.4 |  |  | greatly increased anti-inflammatory efficacy | 122.2 | 21.5 | about 9 fold |
